Measurements from patent US20210277128A1 (published 2021).

What was measured:
[1] = molecular target: T1, Monomeric EGFR extracellular domain (ProSpec Bio, PKA-344) (UniProt P00533 25-645, limits assumed); assay: BLI (BLItz), antibody on anti-human IgG Fc tips, EGFR ECD 200 nM then Her3 ECD 200 nM
T1 construct: extracellular domain; Bought reagent; also called EGFR ECD

[2] = molecular target: T2, SI-2C1, dimeric EGFR ECD fused to rabbit Fc (UniProt P00533 25-645, limits assumed); assay: ELISA, dimeric EGFR ECD-rabbit Fc coated, anti-human IgG-HRP detection
T2 construct: extracellular domain; Made in house

[3] = molecular target: T1, Monomeric EGFR extracellular domain …; assay: BLI (BLItz), antibody on anti-human IgG Fc tips, EGFR ECD 588 nM; benchmark antibody

B1: SI-1X1 (bispecific antibody, human IgG1, kappa)
heavy: not shown
light: QSALTQPASVSGSPGQSITISCTGTSSDVGGYNFVSWYQQHPGKAPKLMIYDVSDRPSGVSDRFSGSKSGNTASLIISGLQADDEADYYCSSYGSSSTHVIFGGGTKLTVLRTVAAPSVFIFPPSDEQLKSGTASVVCLLNNFYPREAKVQWKVDNALQSGNSQESVTEQDSKDSTYSLSSTLTLSKADYEKHKVYACEVTHQGLSSPVTKSFNRGEC
notes: Tetravalent IgG-(G4S)2-scFv; heavy chain entry holds gamma-1 heavy chain, connector and scFv; Anti-Her3 IgG moiety, anti-EGFR scFv
B1: binds [1].

B2: SI-1C5 (antibody, human IgG1, kappa, V domains shown)
VH: QVQLQQSGAEVKKPGSSVKVSCKASGYTFTNYYIYWVRQAPGQGLEWIGGINPTSGGSNFNEKFKTRVTITVDESTNTAYMELSSLRSEDTAFYFCARQGLWFDSDGRGFDFWGQGSTVTVSS
VL: DIQMTQSPSSLSASVGDRVTITCRSSQNIVHSNGNTYLDWYQQTPGKAPKLLIYKVSNRFSGVPSRFSGSGSGTDFTFTISSLQPEDIATYYCFQYSHVPWTFGQGTKLQITR
notes: Monospecific anti-EGFR antibody
B2: binds [2].

B3: SI-1C4 (bispecific antibody, human IgG1, kappa, V domains shown)
VH: EVQLVESGGGLVQPGGSLRLSCAASGFTLSGDWIHWVRQAPGKGLEWVGEISAAGGYTDYADSVKGRFTISADTSKNTAYLQMNSLRAEDTAVYYCARESRVSFEAAMDYWGQGTLVTVSS
VL: DIQMTQSPSSLSASVGDRVTITCRASQNIATDVAWYQQKPGKAPKLLIYSASFLYSGVPSRFSGSGSGTDFTLTISSLQPEDFATYYCQQSEPEPYTFGQGTKVEIKR
notes: also called IC4
B3: binds [3].
